For one assay, the target named is EGFP-vinculin (UniProt P18206). Kind of assay: FRET or BRET; multiphoton TCSPC-FLIM of the donor on vinculin (EGFP or mTFP1) with mScarlet-I on RIAM as acceptor; transiently transfected MEF Vinc-/- fixed in 4% PFA; also with the ROCK inhibitor H1152 (no change).
The next assay concerns the target mTFP1-vinculin (UniProt P18206). Described as above.

Substance “RIAM-mScarlet (RIAM C-terminally tagged with mScarlet-I) (from UniProt Q7Z5R6 1-666) (natural protein)” came in with an FRET efficiency with EGFP-vinculin of 13.5%.
For “mScarlet-RIAM (RIAM N-terminally tagged with mScarlet-I) (from UniProt Q7Z5R6 1-666) (natural protein)”, the FRET efficiency was determined as 16.4% in the assay with EGFP-vinculin and 20% with mTFP1-vinculin.

The values above are taken from article PMC12828031.
